This series is described as follows: soluble on expression in E. coli; label from the status in PepcDB or PDB records.
Take “MGSDKIHHHHHHAEAPLRPDQAAFRDLYREMVETDTSITTGSCTLLADRIEARLRGAGFADGQIHRFAVPEFPKEGGIVAILPGTSAKARPILLLGHLDVVVAKREDWTRDPYRLIEEGGYFYGRGVADMKAMDAIWVDMLMRFRKEGRKPRRTIKLALTCGEETSTAFNGAKWLAENRRDLIDAEFALNEGGSGRTDKPLEEGGRVVLQTIHVGEKTPVNYRVEATNPGGHSSMPVRDNAIYELSDALVRLRDYEFPVMLNDTTRAFFAKAGAARGDAMGKAMVAVSADPADKAAVALLDTDRSFHSMLRTTCVATLLDGGHANNALPQRAGANVNCRIFPGVTAEEVRGTLETVVADPRMTVVRTDNRGPDAKAPPLDPKIVGPAEKLVAKYYPGVPMVPMMSTGATDGVFLGAVGIPSYGPPGLFGNPDGNGVHGLNERISVQAVYAGRDLLTELVTAYAF”: the “soluble on expression in E. coli” value was “not soluble”. Turning to “MPDHGPAFTVKIAETEAELHAAQRLRYDVFVRELGGSGALVDHQAGLERDRFDPFFDHMLCINNRSGQVVGVYRLLRDEQAQSAGQFYSEDEYDLGVLKRSGRRLLELGRSCVHPDYRGGMAMYHLWNGLADYVEQHGIEVLFGVASFHGTDVEALAQPLSMLYHNHLAPEDLRVRTQPAHYVDMNRITPEALDRRRAMLEVPSLIKAYLRLGGFVGDGAYIDHAFNTTDVCLILDTARMNERQRRIYGGG”, the “soluble on expression in E. coli” value is on record as “not soluble”. The entry for “EDCQNLLKPCSLCEKRPRDGNIIHGRTGHLVTCFHCARRLKKAGASCPICKKEIQLVIKVFIA” is “soluble”; for “MGSDKIHHHHHHMLEFTLNFNDYGLKMGILTKLELDYEIDDIEKFLQFFRTMCDRFEPLIIKLGSDSVRYKEAIKELETLAHNTAWAARRLNLEEVTDFCVFCEEMMAQANRFNGPASDEFTDWMLLMSDQFEKYCRSYENDDSVLAVFNPLIVNVPNIISK” it is “not soluble”. The same measure for “MHKAILNSDLIATKAGDVTVYNYDGETREYISTSNEYLAVGVGIPACSCLDAPGTHKAGYAICRSADFNSWEYVPDHRGETVYSTKTGESKEIKAPGDYPENTTTIAPLSPYDKWDGEKWVTDTEAQHSAAVDAAEAQRQSLIDAAMASISLIQLKLQAGRKLTQAETTRLNAVLDYIDAVTATDTSTAPDVIWPELPEA”: “not soluble”. As to “MGSDKIHHHHHHVTYVRNNALHCGPLPQHVTAPSFRSGTGFYETLLYNGCRLVNADAHMERITRSARACGLHLLPVDLHAAAQMLLDHLGLCGSMARINLFYTLENAPAADASGLCPPLVPAVTAAPYTPPPADKAFRLCRALHGVQSWWHEHKTTAHMGHLMERTHAQAAGYDDAVLHLPDGAILETTTAALIFYNGSRFTAPFPRFRLSSTAEALVKDVLGITYEKITADRLGCMQHAYVLNALMGMRPVRSIDTAEFNPDTDLCNEMTVLIQKAA”, the “soluble on expression in E. coli” value is recorded as “not soluble”.

Consider “SQELTLSPGPAKLTPTLDPTHRMELILSTSPAELTLDPACQPKLPLDSTCQPEMTFNPGPTELTLDPEHQPEETPAPSLAELTLEPVHRRPELLDACADLINDQWPRSRTSRLHSLGQSSDAFPLCLMLLSPHPTLEAAPVVVGHARLSRVLNQPQSLLVETVVVARALRGRGFGRRLMEGLEVFARARGFRKLHLTTHDQVHFYTHLGYQLGEPVQGLVFTSRRLPATLLNAFPTAPSPRPPRKAPNLTAQAAPRGPKGPPLPPPPPLPECLTISPPVPSGPPSKSLLETQYQNVRGRPIFWMEKDI”, for which the “soluble on expression in E. coli” value is reported as “soluble”. For the sequence “MANSGEEKLKLYSYWRSSCAHRVRIALALKGLDYEYIPVNLLKGDQFDSDFKKINPMGTVPALVDGDVVINDSFAIIMYLDEKYPEPPLLPRDLHKRAVNYQAMSIVLSGIQPHQNLAVIRYIEEKINVEEKTAWVNNAITKGFTALEKLLVNCAGKHATGDEIYLADLFLAPQIHGAINRFQINMEPYPTLAKCYESYNELPAFQNALPEKQPDAPSSTI”, the “soluble on expression in E. coli” value is “soluble”. For the sequence “MSRRRIRKFERPEEALLHLLDAAGIYRVGSRVWLHKPRVRELGFQYLAVETLVREYALAAEREYRGSVVYSKVYGGREYKILLGRGEEVAEASLADPSTVQRLLFSWRHLEELLPSPPLPAFVVDLSLKFMHTEEELSKLRLQIAVALSEVRKYLWDPHLVLTNMDPQTSGWISEVLGDNKVTISQSKPSEILWSMDADRVVILRPDAPQPLSGSEVLAADAFLIGGIVDRIPRPGVSRILDNLVPWGVPRRIELRGSVAGVPERINRIVEILLKARYKYPGNLEKAIITSMTKKDVLTRVYSEIIKRGRRVGSELVVEWSLYEDLSSWLPLTPEDFMLAAKRARARIEGAPRRDNALEHHHHHH”, the “soluble on expression in E. coli” value is on record as “not soluble”.

For the origin of these results see the DeepSol protein solubility set.
